# Assay results published in publication PMC5971202.
# Residue numbers refer to the chain shown, from its start. Where two headings read alike, the source gives them in different places.
# T1: rDDX1-K52A (human, UniProt Q92499 1-728, K52A)
# T1 sequence: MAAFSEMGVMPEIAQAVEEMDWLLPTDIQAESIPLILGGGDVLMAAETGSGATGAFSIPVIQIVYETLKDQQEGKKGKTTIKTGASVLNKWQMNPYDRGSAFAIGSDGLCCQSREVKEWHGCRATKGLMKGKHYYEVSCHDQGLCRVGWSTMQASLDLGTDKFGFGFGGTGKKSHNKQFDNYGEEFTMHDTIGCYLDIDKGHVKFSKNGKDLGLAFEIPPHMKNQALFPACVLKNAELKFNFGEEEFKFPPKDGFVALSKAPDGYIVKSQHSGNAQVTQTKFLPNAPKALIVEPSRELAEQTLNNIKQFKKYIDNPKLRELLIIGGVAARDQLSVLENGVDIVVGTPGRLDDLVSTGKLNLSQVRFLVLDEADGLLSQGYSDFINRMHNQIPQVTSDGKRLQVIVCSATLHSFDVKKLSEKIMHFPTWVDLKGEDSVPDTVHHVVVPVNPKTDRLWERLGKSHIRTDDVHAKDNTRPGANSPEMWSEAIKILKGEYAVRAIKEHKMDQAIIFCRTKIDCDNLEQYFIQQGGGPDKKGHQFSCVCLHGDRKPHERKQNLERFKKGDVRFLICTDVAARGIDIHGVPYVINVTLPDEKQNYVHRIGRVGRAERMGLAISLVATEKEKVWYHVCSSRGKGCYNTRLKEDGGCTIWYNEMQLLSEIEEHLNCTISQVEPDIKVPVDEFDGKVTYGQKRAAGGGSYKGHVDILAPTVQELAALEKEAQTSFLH
# T2: rDDX1 (WT) (human, UniProt Q92499 1-728)
# T2 sequence: T1 sequence with A52K
# B1: Sμ4G RNA 32P (structured_RNA)
# RNA: GAGCUGGGGUGAGCUGGGGUGAGCUGGGGUGAGCUGGGGU
# B2: Sμ4Gmut RNA 32P (ssRNA)
# RNA: GAGCUGCGCUGAGCUGCGCUGAGCUGCGCUGAGCUGCGCU
# B3: Single-stranded DNA (ssDNA)
# DNA: ATCGGAATGTATGAGAATAGAAGAGATAATGAATAATAGAA
# Experiments:
# Assay in all cases: EMSA
# rDDX1-K52A [1] = molecular target: T1, rDDX1-K52A
# rDDX1 (WT) [2] = molecular target: T2, rDDX1 (WT)
# rDDX1-K52A [3] = molecular target: T1, rDDX1-K52A; remark: listed apart in the source
# rDDX1 (WT) [4] = molecular target: T2, rDDX1 (WT); remark: listed apart in the source
Binder,binding result (rDDX1-K52A [1]),binding result (rDDX1 (WT) [2]),binding result (rDDX1-K52A [3]),binding result (rDDX1 (WT) [4])
B1,binds,binds,,
B2,,no binding,,
B3,,,no binding,no binding
